This series concerns the molecule itself. Put plainly: SDS-PAGE.

B1: His6-tagged periplasmic copper binding loop (sensor domain) of CopS, CopS(34-151) (domain or fragment, Pseudomonas aeruginosa, UniProt Q9I033 34-151, looked up)
chain: FSRAIDEHFVELDHMAMSAKLAVFRDELRGLGSEQQMRRREAELLRELARHPDLGLRLNGPDGNLWFERLPQPAHPGLPANRELGAPLEPGNDASPRLTVILDISHHQHFLQRMRQLI
Take B1: the binding result is recorded as “binds”.

The record behind these values is doi:10.1101/2020.05.13.092544 (bioRxiv, 2020).
